Consider one molecule from article PMC10572602, “Molecular Mechanism of STIL Coiled-Coil Domain Oligomerization” (International Journal of Molecular Sciences, 2023).

Series [1] concerns the target T1, STIL CCD peptide with a different fluorophore (fluorescence polarization) (a fluorophore other than the coumarin, not named, position not stated; C-terminal amide).
T1 construct: STIL coiled-coil domain, residues 718-749; also called same STIL CCD peptide and different fluorophore; source: synthetic peptide
T1 peptide: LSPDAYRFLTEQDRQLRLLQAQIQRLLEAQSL
Nature of the series: fluorescence polarisation; same STIL CCD peptide with a different fluorophore; Hill fit; dimer to monomers. Particulars: both partners purified.

Series [2] concerns the molecule itself. The experiment in a line: AUC; sedimentation velocity, 75 µM peptide, c(s) distribution; 20 °C, 25 mM sodium phosphate pH 6.8, ionic strength 154 mM (NaCl).
Series [3] concerns the molecule itself. Nature of the series: AUC; sedimentation velocity, 500 µM peptide, c(s) distribution; 20 °C, 25 mM sodium phosphate pH 6.8, ionic strength 154 mM (NaCl).
Series [4] concerns the molecule itself. The experiment in a line: AUC; sedimentation velocity, 12.5 µM peptide, c(s) distribution; 20 °C, 25 mM sodium phosphate pH 6.8, ionic strength 154 mM (NaCl).
Series [5] deals with the molecule itself. Nature of the series: AUC; sedimentation velocity, 10 µM peptide, c(s) distribution; 20 °C, 25 mM sodium phosphate pH 6.8, ionic strength 154 mM (NaCl).
Series [6] deals with the molecule itself. The experiment in a line: AUC; sedimentation equilibrium, starting concentrations 5, 10 and 20 µM, unlabelled peptide, no DMSO; 20 °C, sodium phosphate pH 6.8 with NaCl; fitted to a single ideal species (N) and, for the WT, to a dimer-tetramer model (apparent KD: tetramer to dimers).
Series [7] deals with the molecule itself. Described as above. The source holds these as a separate data set.
The target of series [8] is T2, WT STIL CCD peptide labelled with 7-(Diethylamino)coumarin-3-carboxylic acid (7-(Diethylamino)coumarin-3-carboxylic acid on the N-terminus; C-terminal amide).
T2 construct: STIL coiled-coil domain, residues 718-749; also called labeled-WT CCD; fluorophore-labelled peptide; source: synthetic peptide (Fmoc-SPPS, fluorophore coupled on the resin, RP-HPLC purified)
T2 peptide: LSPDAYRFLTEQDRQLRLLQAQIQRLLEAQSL
The experiment in a line: other fluorescence titration; fluorescence read on a Monolith NT.115 (micro-scale thermophoresis instrument); 5 µM coumarin-labelled peptide with unlabelled peptide 9 nM to 300 µM; 25 mM sodium phosphate pH 6.8, ionic strength 154 mM (NaCl), 5% DMSO, room temperature (24 °C); Hill fit; apparent; taken by the paper as dimer to monomers. Particulars: both partners purified.

No end group written: not given here.

B1: STIL CCD_(718–749) WT (peptide)
peptide: LSPDAYRFLTEQDRQLRLLQAQIQRLLEAQSL-NH2
notes: STIL (SCL/TAL1 Interrupting Locus) coiled-coil domain, residues 718-749; 32-residue peptide, unlabelled; also called WT STIL CCD peptide; WT CCD; source: synthetic peptide (Fmoc-SPPS on rink amide, RP-HPLC purified)
A word on the stoichiometry N: it is a count of units in the complex or per binding partner. For the molecule B1, the Kd in series [1] is 8.5 ± 0.4 µM; in series [6], 68 ± 2 µM; in series [8], 8 ± 2 µM. In addition, the “stoichiometry N” value in series [2] is 3.27 × monomer mass; in series [3], 3.4 × monomer mass; in series [4], 2 × monomer mass; in series [5], 1.7; in series [7], 2.9 ± 0.04.
